Results as given in patent publication US20210221863A1 (Innovent, published 2021).
Residue numbers refer to the chain shown, from its start. Where two headings read alike, the source gives them in different places. Blank lines part the entries; values can stand above or below the binder they belong to.

Experiments:
[1] = biological target: T1, IL-2Rβ IH-Biotin (Homo sapiens (Human), UniProt P14784 27-240, biotin on the avi tag (enzymatic labeling with His-BirA)); assay: BLI (Octet Red96): biotinylated receptor on SA sensor, 100 nM Fc fusion in solution, 1:1 model
T1 construct: also called IL-2Rβ IH (in house); CD122
T1 sequence: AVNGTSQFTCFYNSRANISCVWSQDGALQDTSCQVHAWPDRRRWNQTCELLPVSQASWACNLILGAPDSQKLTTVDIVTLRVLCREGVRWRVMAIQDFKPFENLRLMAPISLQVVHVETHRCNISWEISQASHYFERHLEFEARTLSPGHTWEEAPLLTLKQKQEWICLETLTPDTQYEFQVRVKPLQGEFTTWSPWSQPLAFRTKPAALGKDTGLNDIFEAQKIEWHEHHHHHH
Protocol: A BLI affinity assay was performed according to the prior art (Estep, P, et al., High throughput solution based measurement of antibody-antigen affinity and epitope binning. MAbs, 2013.5(2): p. 270-8). […] Kinetic analysis was performed on the assay results using a 1:1 binding model.

[2] = biological target: T2, IL-2Rα-Biotin (Homo sapiens (Human), UniProt P01589 22-217, biotin on the avi tag (enzymatic labeling with His-BirA)); assay: BLI (Octet Red96): biotinylated receptor on SA sensor, 100 nM Fc fusion in solution
T2 construct: also called CD25; IL-2Rα receptor
T2 sequence: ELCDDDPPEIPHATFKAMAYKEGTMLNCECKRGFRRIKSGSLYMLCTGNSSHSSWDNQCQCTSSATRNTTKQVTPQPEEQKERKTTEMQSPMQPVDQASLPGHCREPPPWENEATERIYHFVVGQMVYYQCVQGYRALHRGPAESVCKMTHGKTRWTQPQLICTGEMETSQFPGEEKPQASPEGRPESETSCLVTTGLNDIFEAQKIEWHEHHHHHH

[3] = biological target: T3, IL-2Rα (CD25) on primary human CD8^+ CD25^+ T cells (human, UniProt P01589 22-272); assay: cell-based or functional assay
T3 sequence (looked up): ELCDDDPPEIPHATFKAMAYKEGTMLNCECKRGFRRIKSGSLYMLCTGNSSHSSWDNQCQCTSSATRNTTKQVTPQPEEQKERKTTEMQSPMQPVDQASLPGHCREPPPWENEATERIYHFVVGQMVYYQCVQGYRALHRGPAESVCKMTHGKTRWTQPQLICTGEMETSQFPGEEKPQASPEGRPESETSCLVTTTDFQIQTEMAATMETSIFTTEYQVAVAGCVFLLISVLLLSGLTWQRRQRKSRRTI

[4] = biological target: T3, IL-2Rα (CD25) on primary human CD8^+ …; assay: cell-based or functional assay; remark: listed apart in the source
[5] = biological target: T1, IL-2Rβ IH-Biotin; assay: flow cytometry: yeast-displayed IL-2 stained with IL-2Rβ IH-Biotin (30 nM-100 nM)
Protocol: (§1) 1. 1×10⁶ cells from each sample were centrifuged to discard the supernatant, and washed with FACS buffer once for later use; [0133] 2. the cells were added to 100 μL of FACS buffer containing 50 nM IL-2Rα-Biotin and Anti Flag antibody, and incubated at room temperature for 30 min; [0134] 3. the mixture was centrifuged at 3000 rpm, 4° C. for 3 min, and washed with pre-cooled FACS buffer twice; [0135] 4. 100 μL of FACS buffer containing SA-PE and goat anti-mouse conjugated with Alex Flour-647 was added, and the mixture was incubated on ice for 20 min away from light; [0136] 5. after being washed twice with pre-cooled FACS buffer, the cells were resuspended in 100 μL of buffer, and the binding level of IL-2^mutant to IL-2Rα was assayed by a flow cytometer (BD, ACCURI C6). […] 1. […] 2. the cells were added to 100 μL of FACS buffer containing IL-2Rβ IH-Biotin (30 nM-100 nM) and Anti Flag antibody, and incubated at room temperature for 30 min; [0139] 3. following steps 3-5 described above, the binding level of IL-2^mutant to IL-2Rβ was assayed.

[6] = biological target: T2, IL-2Rα-Biotin; assay: flow cytometry: yeast-displayed IL-2 stained with 50 nM IL-2Rα-Biotin
Protocol: as §1

- Kd [1]: 16 nM
- binding result [2]: no binding (tested: 100 nM)
- EC50 (read off the curve) of p-STAT5 activation [3]: ~6 nM
- EC50 (read off the curve) of p-STAT5 activation [4]: ~7 nM
B1: IL-2^3X-FC fusion protein (Fc fusion, not shown: small tags and cut ends; a dimerising Fc or GST)
chain: APTSSSTKKTQLQLEHLLLDLQMILNGINNYKNPKLTDMLTFEFYMPKKATELKHLQCLERELKPLEEVLNLAQSKNFHLRPRDLISNINVIVLELKGSETTFMCEYADETATIVEFLNRWITFSQSIISTLT

- binding result [5]: binds
B2: IL-2^H9 displayed on the surface of yeasts (ligand, not shown: small tags and cut ends)
chain: B1 chain with D38R, E43K, R61E, L80F, R81D, L85V, I86V, I92F
notes: Control on yeast cells

- binding result [6]: no binding (tested: 50 nM)
B3: IL-2^3x displayed on the surface of yeasts (ligand, not shown: small tags and cut ends)
chain: B1 chain
notes: Control on yeast cells
